T1: human IP-10 (human, UniProt P02778 22-98)
T1 construct: The HDX-MS text says 'recombinant full length human IP-10'; An IP10 dimer was placed in the crystal structure; also called huIP-10; CXCL10
T1 sequence: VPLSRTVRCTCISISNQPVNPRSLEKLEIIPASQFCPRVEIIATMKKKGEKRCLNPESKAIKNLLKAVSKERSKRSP

T2: cynomolgus monkey IP-10 (cynomolgus monkey, UniProt A0A2K5WKN6 22-98)
T2 construct: endogenous serum IP-10 in the monkey studies; also called cynoIP-10; cyno IP10
T2 sequence: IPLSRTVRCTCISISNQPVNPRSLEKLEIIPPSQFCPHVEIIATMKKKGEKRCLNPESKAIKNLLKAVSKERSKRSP

T3: human ITAC (human, UniProt O14625 22-94)
T3 construct: also called interferon-inducible T cell alpha chemoattractant; CXCL11
T3 sequence: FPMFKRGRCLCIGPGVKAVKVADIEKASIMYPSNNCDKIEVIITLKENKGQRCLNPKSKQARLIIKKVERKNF

T4: human MIG (human, UniProt Q07325 23-125)
T4 construct: also called monokine induced by gamma interferon; CXCL9
T4 sequence: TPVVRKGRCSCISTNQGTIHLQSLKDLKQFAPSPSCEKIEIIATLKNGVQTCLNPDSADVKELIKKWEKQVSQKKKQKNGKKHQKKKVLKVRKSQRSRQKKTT

T5: mouse IP-10 (mouse, UniProt P17515 22-98)
T5 sequence: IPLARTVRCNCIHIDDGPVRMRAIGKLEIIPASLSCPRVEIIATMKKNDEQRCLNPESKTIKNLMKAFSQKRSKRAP


Experiments:
[1] = target: T1, human IP-10; experiment: SPR (Biacore) at 37 C, IgG1, human IP-10 (second row for IP10.1g1f)
[2] = target: T2, cynomolgus monkey IP-10; experiment: Biacore SPR, cynoIP-10
[3] = target: T3, human ITAC; experiment: Biacore SPR
[4] = target: T4, human MIG; experiment: Biacore SPR
[5] = target: T1, human IP-10; experiment: Biacore-based binding studies
[6] = target: T5, mouse IP-10; experiment: Biacore-based binding studies
[7] = target: T2, cynomolgus monkey IP-10; experiment: in vivo Kd estimated by PK/PD modeling of free drug, free and total serum IP-10 in cynomolgus monkeys; in vivo Kd from PK/PD modeling in cynomolgus monkeys, not a direct binding assay
[8] = target: T1, human IP-10; experiment: Biacore kinetic analysis
[9] = target: T1, human IP-10; experiment: SPR (Biacore) at 37 C, IgG1, human IP-10
[10] = target: T1, human IP-10; experiment: Biacore SPR, huIP-10
[11] = target: T1, human IP-10; experiment: whole cell binding assays with I125-IP-10 (CXCR3/300.19 and KM12SM cells)
[12] = target: T2, cynomolgus monkey IP-10; experiment: cell-based or functional assay
[13] = target: T4, human MIG; experiment: Biacore SPR, MIG; Biacore, lot 3007: weak measured KD for MIG, about 17000 times weaker than for huIP-10 (0.01 nM)
[14] = target: T2, cynomolgus monkey IP-10; experiment: cell-based or functional assay; remark: listed apart in the source
[15] = target: T1, human IP-10; experiment: cell-based or functional assay
[16] = target: T1, human IP-10; experiment: Biacore SPR, huIP-10 (text: limit of detection with the Biacore is 90 pM)
[17] = target: T2, cynomolgus monkey IP-10; experiment: in vivo Kd estimated by PK/PD modeling in cynomolgus monkeys
[18] = target: T4, human MIG; experiment: Biacore SPR, MIG

Binder	Kd [2]	binding result [3]	Kd [9]	koff [9]	kon [9]	koff [10]	kon [10]	other results
IP10.1 (antibody, human IgG1, kappa, V domains shown, Human IgG1 (g1f) full-length antibody; Parent antibody of all variants; also called 6A5; antibody 6A5) VH: QMQLVESGGGVVQPGRSLRLSCTASGFTFSNNGMHWVRQAPGKGLEWVAVIWFDGMNKFYVDSVKGRFTISRDNSKNTLYLEMNSLRAEDTAIYYCAREGDGSGIYYYYGMDVWGQGTTVTVSS VL: not shown	14.9 nM	no binding	4.18 nM	0.000151 s⁻¹	36200 M⁻¹ s⁻¹	6.8e-05 s⁻¹	8000 M⁻¹ s⁻¹	Kd [1]: 6.27 nM; koff [1]: 0.000138 s⁻¹; kon [1]: 22000 M⁻¹ s⁻¹; binding result [4]: no binding; Kd [5]: ~5 nM; binding result [6]: no binding; Kd [7]: 6.5 nM; estimated t1/2 (half-life of IP-10 association) [8]: ~3 h; Kd [10]: 8.53 nM
IP10.44 (antibody, human IgG1, kappa, V domains shown, Human IgG1 full-length antibody; also called BMS-986184; IP10.44-g1f) VH: QVQLVESGGGVVQPGRSLRLSCAASGFTFSEYGMHWVRQAPGKGLEWVAVIGFAGLIKGYADSVKGRFTISRDNSKNTLYLQMNSLRAEDTAVYYCAREGAGSNIYYYYGMDVWGQGTTVTVSS VL: not shown	0.2 nM	no binding	0.17 nM	4e-06 s⁻¹	26200 M⁻¹ s⁻¹	1e-07 s⁻¹	11600 M⁻¹ s⁻¹	fold better potency than IP10.1 in blocking IP-10 binding to cells [11]: ≥ 5 fold; fold improvement of KD against IP10.1 [5]: ≥ 50 fold; binding result [6]: no binding; Kd [7]: 0.043 nM; IC50 (read off the curve) [12]: ~0.3 nM; Kd [13]: 168 nM; estimated t1/2 (half-life of IP-10 association) [8]: > 100 h; IC50 of free serum IP-10 suppression against free drug concentration in cynomolgus monkeys [14]: 0.223 nM; fold better potency than IP10.1, IL-6 secretion by hPBMCs [15]: ~6 fold; fold greater potency relative to IP10.1, IL-12p40 secretion by hPBMCs [15]: 4 fold; Kd [16]: 0.01 nM; fold more potent than IP10.1 (in vivo Kd) [17]: ~150 fold
IP10.46 (antibody, human IgG1, kappa, V domains shown, IgG1 full-length variant of IP10.1; also called IP10.46-g1f) VH: QVQLVESGGGVVQPGRSLRLSCTASGFTFSQYGMHWVRQAPGKGLEWVAVISYGGDIKYYADSVKGRFTISRDNSKNTLYLQMNSLRAEDTAVYYCAREGEGSNIYYYYGMDVWGQGTTVTVSS VL: not shown	0.19 nM	no binding	0.12 nM	2e-06 s⁻¹	13500 M⁻¹ s⁻¹	1e-06 s⁻¹	9600 M⁻¹ s⁻¹	Kd [18]: 77.5 nM; Kd [10]: 0.11 nM
IP10.43 (antibody, human IgG1, kappa, V domains shown, IgG1 full-length variant of IP10.1) VH: QVQLVESGGGVVQPGRSLRLSCTASGFTFSSYGMHWVRQAPGKGLEWVAVIDFVGDTKYYTDSVKGRFTISRDNSKNTLYLQMNSLRAEDTAVYYCAREGAGSNIYYYYGMDVWGQGTTVTVSS VL: not shown	–	–	1.64 nM	1.7e-05 s⁻¹	9300 M⁻¹ s⁻¹	–	–	–
IP10.47 (antibody, human IgG1, kappa, V domains shown, IgG1 full-length variant of IP10.1; also called IP10.47-g1f) VH: QVQLVESGGGVVQPGRSLRLSCAASGFTFSTHGMHWVRQAPGKGLEWVAVIGFGGLIKSYADSVKGRFTISRDNSKNTLYLQMNSLRAEDTAVYYCAREGDGSSLYFYYGMDVWGQGTTVTVSS VL: not shown	–	–	0.56 nM	1.4e-05 s⁻¹	24000 M⁻¹ s⁻¹	–	–	–
IP10.45 (antibody, human IgG1, kappa, V domains shown, IgG1 full-length variant of IP10.1; also called IP10.45-g1f) VH: QVQLVESGGGVVQPGRSLRLSCTASGFTFSKHGMHWVRQAPGKGLEWVAVIGFAGVIKSYADSVKGRFTISRDNSKNTLYLQMNSLRAEDTAVYYCAREGEGSNIYFYYGMDVWGQGTTVTVSS VL: not shown	4.74 nM	no binding	–	–	–	–	–	binding result [4]: no binding

Second part, led by results:

Kd [2]	binding result [3]	Kd [9]	koff [9]	kon [9]	koff [10]	kon [10]	Binder	other results
–	–	0.96 nM	–	–	–	–	IP10.51 (antibody, human IgG1, kappa, V domains shown, IgG1 full-length variant of IP10.1; also called IP10.51-g1f) VH: QVQLVESGGGVVQPGRSLRLSCTASGFTFSDYGMHWVRQAPGKGLEWVAVIGYGGLIKGYADSVKGRFTISRDNSKNTLYLQMNSLRAEDTAVYYCAREGAGSSIYYYYGMDVWGQGTTVTVSS VL: not shown	–
–	–	0.25 nM	4e-06 s⁻¹	15400 M⁻¹ s⁻¹	–	–	IP10.54 (antibody, human IgG1, kappa, V domains shown, IgG1 full-length variant of IP10.1; also called IP10.54-g1f) VH: QVQLVESGGGVVQPGRSLRLSCTASGFTFSQYGMHWVRQAPGKGLEWVAVISYGGDIKYYADSVKGRFTISRDNSKNTLYLEMNSLRAEDTAIYYCAREGEGSNIYYYYGMDVWGQGTTVTVSS VL: not shown	–
–	–	0.34 nM	5e-06 s⁻¹	14100 M⁻¹ s⁻¹	–	–	IP10.48 (antibody, human IgG1, kappa, V domains shown, IgG1 full-length variant of IP10.1; also called IP10.48-g1f) VH: QVQLVESGGGVVQPGRSLRLSCAASGFTFSNYGMHWVRQAPGKGLEWVAVIDFAGINKYYADSVKGRFTISRDNSKNTLYLQMNSLRAEDTAVYYCAREGEGSNIYFFYGMDVWGQGTTVTVSS VL: not shown	–
–	–	0.41 nM	6e-06 s⁻¹	14700 M⁻¹ s⁻¹	–	–	IP10.49 (antibody, human IgG1, kappa, V domains shown, IgG1 full-length variant of IP10.1; also called IP10.49-g1f) VH: QVQLVESGGGVVQPGRSLRLSCTASGFTFSQSGMHWVRQAPGKGLEWVAVIGFGGLIKSYADSVKGRFTISRDNSKNTLYLQMNSLRAEDTAVYYCAREGDGSGIYYYYGMDVWGQGTTVTVSS VL: not shown	–
1.43 nM	no binding	–	–	–	5e-07 s⁻¹	13000 M⁻¹ s⁻¹	IP10.52 (antibody, human IgG1, kappa, V domains shown, IgG1 full-length variant of IP10.1; also called IP10.52-g1f) VH: QVQLVESGGGVVQPGRSLRLSCTASGFTFSDYGMHWVRQAPGKGLEWVAVIGYGGLIKGYADSVKGRFTISRDNSKNTLYLQMNSLRAEDTAVYYCAREGAGSSVYYYYGMDVWGQGTTVTVSS VL: not shown	Kd [18]: 73.5 nM; Kd [10]: 0.04 nM
0.22 nM	no binding	–	–	–	–	–	IP10.53 (antibody, human IgG1, kappa, V domains shown, IgG1 full-length variant of IP10.1; also called IP10.53-g1f) VH: QVQLVESGGGVVQPGRSLRLSCAASGFTFSDYGMHWVRQAPGKGLEWVAVISHNGAIKGYADSVKGRFTISRDNSKNTLYLQMNSLRAEDTAVYYCAREGDGSNIYYYYGMDVWGQGTTVTVSS VL: not shown	Kd [18]: 54.3 nM
